Measurements taken from the supplement of paper PMC12042874.
± gives the uncertainty stated by the source.

Assay: amyloid nucleation score (Sup35N fusion, yeast selection) (log enrichment); library NNK3; higher = more nucleation; inactive = no reads after selection
Procedure, shortened: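 Sup35N was fused to peptides of 20 random codons and expressed in psi-negative yeast, which were induced with 100 μM copper sulfate for 24 hours and then grown on medium lacking adenine and uracil for 7 days at 30°C. Plasmid inserts from input and output were sequenced on Illumina. The nucleation score is the DiMSum log enrichment of output over input reads, centred on the mode score of non-aggregating sequences. Sequences with under 100 input reads were left out, and random libraries had three technical output replicates.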

Row | Substance | amyloid nucleation score
1 | MIYGNWHIWFDVTAVKYEVG | inactive
2 | MIYLYNKKYMSCRFDTCIIP | inactive
3 | MKKWDNNSLVLPLKGSGKED | inactive
4 | MLAGWSQFYGISRYLPENPV | inactive
5 | MLCAL | inactive
6 | MLCHLVMTSSLSRFLDRGFR | 1.26 ± 0.1
7 | MLDCF | inactive
8 | MLDFICAVFSVKNWVGICFV | inactive
9 | MLFPPLLGNWLDSGTTQVRR | inactive
10 | MLFYCFYINGRAARTYKRYS | inactive
11 | MLGDLAYCGYMSSAGVGSLI | inactive
12 | MLGVSYCRQVVYKENSYDFR | inactive
13 | MLGWCYLMTTCE | inactive
14 | MLHLGTCEIILAYHHDMKML | inactive
15 | MLIGWC | inactive
16 | MLKPIMLILKSLEFVLEESS | 0.985 ± 0.11
17 | MLNGVLNSKVPMNRRTSGNL | 0.537 ± 0.13
18 | MLNVINVYHVSSCGLRGNFE | 2.63 ± 0.077
19 | MLREMY | inactive
20 | MLYVLSYWLLKMPQMLNVNP | inactive
21 | MMGKRDALVFN | inactive
22 | MMIIL | inactive
23 | MMNGVGAWASFGLLNNYGGN | 0.291 ± 0.29
24 | MMSDLILV | -0.43 ± 1
25 | MMSDNDISLRRYFVQCLKSS | inactive
26 | MMSFNVPLNAWVLSEFDTTY | inactive
27 | MMSTTKSRDNSIKDQLSGSS | inactive

Row | Substance | amyloid nucleation score
28 | MNFMLTLFLWGM | inactive
29 | MNGIGNYLDTYMGSCHVEDM | inactive
30 | MNRTFVIIVKNVASMIKDNR | 2.1 ± 0.1
31 | MNVGAIGKSSFMY | inactive
32 | MNWGYILLYVWDVSKNRYGF | inactive
33 | MNWLSTTGECSILDISQ | inactive
34 | MPILLCLVHPPLYSSDPFQK | inactive
35 | MPMCT | inactive
36 | MPSEILVSGIAGYAWAVSR | -0.504 ± 1.9
37 | MQFLRYSLPSDNRLPGCFL | inactive
38 | MQMMGNEILRFFFVSVLNIN | inactive
39 | MRARLFNRITYIGNECNVLS | inactive
40 | MRCGKSL | inactive
41 | MRDMIINMVSGETNGLCVKP | inactive
42 | MRICFFDSIQHYQKNQD | 2.1 ± 0.071
43 | MRLCAGSCAVFMWNVLVMLG | inactive
44 | MRLDRS | inactive
45 | MRMVTPLSGRPRWYLHF | inactive
46 | MRNCEIISWKKAQVLSYNSS | inactive
47 | MRNGCCNACKILLDIRLFL | 1.96 ± 0.059
48 | MRPITGVMVLNVSNRQITLF | 1.72 ± 0.088
49 | MRSNSTVYGTFTRSNVLHIP | inactive
50 | MRSTNLACAGMHIN | inactive
51 | MSCSASSSGKAWFGGSPTWW | 0.674 ± 0.3
52 | MSENLDKLKTFPPALE | inactive
53 | MSESTITLPWIAGIAWDEKL | inactive
54 | MSFVSSRGVNKWQVETGLLE | inactive

Row | Substance | amyloid nucleation score
55 | MSGALFMGLGTGRSRVTRNL | inactive
56 | MSKHF | inactive
57 | MSKWYYRWASYNCWFFDRPV | inactive
58 | MSMVFIVSCNDDIYTRAR | 0.119 ± 0.24
59 | MSSFLTPAGRFSRYFTFVCF | inactive
60 | MSSSIILWNFCNMDRCSLVG | 2.23 ± 0.087
61 | MSVQGDHYFPT | inactive
62 | MSWGGCNAVRKFFECRRRVQ | 0.222 ± 0.5
63 | MTCTTCACDDICSNKLVLFH | inactive
64 | MTFRFNVMLVCLWRATNCFL | inactive
65 | MVLCSKGIVNSARLAFKKSR | inactive
66 | MVNAWLNRYKMWNVFIALNR | inactive
67 | MVNMTI | inactive
68 | MVQNLQNRYGSWSCKFGFQR | inactive
69 | MVSLHYVI | inactive
70 | MVTLKQYLYSG | 1.05 ± 0.2
71 | MVVLRAVEQLGVRNNDYHS | inactive
72 | MVVRDDKIWIAFRCLYDCCV | inactive
73 | MVVTKLRRDVISQSRISMGW | 1.07 ± 0.1
74 | MWLRFKDFVVRWN | inactive
75 | MWSHLVCCNRQPENLYG | 1.32 ± 0.16
76 | MWVGKHDVYTRDFM | inactive
77 | MWVMGNDS | inactive
78 | MWVNATSSV | inactive
79 | MWVSAYWYNTCRYRFLSV | inactive
80 | MWWAINCWSSKFHIYSIDTY | inactive
